Bridges are numbered along the chain shown (N, C = ends). Where no end group is shown, it is not given here. The star is where a group is joined. Biotin = O=C1N[C@H]2[C@H](CS[C@H]2CCCCC(=O)*)N1
Columns and labels:
[1] = biological target: T1, human serum albumin (human, UniProt P02768 25-609); experiment: phage ELISA for specificity: 50 ng of each protein coated per well, absorbance at 450 nm; six bars per clone in the order of the legend: VEGFR2, human IgG, monoclonal antibody, enzyme, HSA, blocked well
T1 construct: also called HSA
T1 sequence (P02768 25-609 limits assumed): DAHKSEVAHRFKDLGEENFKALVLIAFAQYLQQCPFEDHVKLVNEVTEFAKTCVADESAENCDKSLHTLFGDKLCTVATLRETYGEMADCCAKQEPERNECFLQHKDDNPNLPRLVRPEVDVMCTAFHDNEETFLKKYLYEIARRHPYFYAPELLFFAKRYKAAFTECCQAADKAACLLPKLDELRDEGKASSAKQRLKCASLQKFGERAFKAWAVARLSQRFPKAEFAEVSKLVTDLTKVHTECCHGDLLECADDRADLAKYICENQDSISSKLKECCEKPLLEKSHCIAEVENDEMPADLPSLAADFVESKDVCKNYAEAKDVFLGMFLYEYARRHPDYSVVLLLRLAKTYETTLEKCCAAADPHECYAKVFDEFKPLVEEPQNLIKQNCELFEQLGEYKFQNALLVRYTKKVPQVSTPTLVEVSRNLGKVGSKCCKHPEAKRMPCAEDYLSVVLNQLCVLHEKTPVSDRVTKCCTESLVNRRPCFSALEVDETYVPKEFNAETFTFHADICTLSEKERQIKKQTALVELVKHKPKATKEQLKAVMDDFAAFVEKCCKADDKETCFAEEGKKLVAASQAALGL
Protocol: (§1) ELISAs were then performed to screen for modified WW domain peptides that bind to the target ligand. NUNC Maxisorp plates were coated with 50 ng per well of VEGFR2 in PBS overnight at 4° C. After blocking the plates with PBS, 2% BSA, 0.1% Tween-20, phage displaying the selected clones were added, diluted in blocking buffer, and incubated for 1 hour. WW domain binders were detected using horseradish peroxidase-conjugated anti-M13 antibody (GE) and SureBlue TMB peroxidase substrate (Insight Biotechnology, Middlesex, UK); and the ELISA signal was read at 450 nm.
The specificity of clones selected for binding to VEGFR2 was assayed in an ELISA against a selection of non-target peptides/proteins, as described above. 50 ng of each of the different target and non-target proteins was coated per well of and ELISA plate and each of the modified WW domain peptides was added.

[2] = biological target: T1, human serum albumin; experiment: phage ELISA: phage-displayed clone on HSA-coated control wells (right bar of each pair), read at 450 nm
[3] = biological target: T2, Human β-NGF (human, UniProt P01138 123-240, limits assumed); experiment: phage ELISA: phage-displayed clone on NGF-coated wells (left bar of each pair), read at 450 nm; control: HSA-coated wells (right bar)
T2 construct: R&D Systems; It was biotinylated via carboxyl groups for the selection
T2 sequence (P01138 123-240 limits assumed): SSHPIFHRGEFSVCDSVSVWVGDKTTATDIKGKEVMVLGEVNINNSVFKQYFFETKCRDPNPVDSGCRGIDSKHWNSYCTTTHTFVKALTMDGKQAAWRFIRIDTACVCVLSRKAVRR

[4] = biological target: T3, VEGFR2-Fc fusion; experiment: competition ELISA: inhibition of VEGFR2 binding to coated VEGF by WW-B1-MBP
T3 construct: Bought from R&D Systems
Protocol: A competition assay was carried out in which binding of VEGFR2 to VEGF-A (VEGF) was competed by the presence of varying amounts of the selected modified WW domain peptide.
50 ng human VEGF (R&D Systems, Abingdon, UK) 1 μg/ml in PBS was coated per well onto a Maxisorp plate at 37° C. for 140 minutes. The wells were then blocked with 100 μl PBS containing 2% BSA for 55 minutes at room temperature. 1.25 ng VEGFR2 was preincubated with WW-B1 fused to maltose binding protein (MBP) in 50 μl PBS for 45 minutes at room temperature. The activity of the WW-B1 peptide was tested at serial dilutions from 10 μM to 156.25 nM. 50 μl 4% BSA in PBS was added to the preincubated VEGFR2 with WW-B1-MBP and the whole mixture was then added to the VEGF coated ELISA plate and incubated at room temperature for 55 minutes. The plate was then washed with 3 washes in PBS-Tween and 2 washes in PBS. Next 50 μl/well penta His-HRP (QIAgen, diluted 1:500 in 2% BSA in PBS) was added and the mixture incubated at room temperature for 55 minutes, before washing as before. ELISA signals were detected using SureBlue TMB peroxidase substrate (Insight biotechnology, Middlesex, UK) at 450 nm.
As a control, the above process was repeated with wild-type Pin1 WW domain peptide replacing WW-B1. The results are illustrated in FIG. 6.

[5] = biological target: T3, VEGFR2-Fc fusion; experiment: phage ELISA: phage-displayed clone on wells coated with 50 ng VEGFR2, anti-M13-HRP, absorbance at 450 nm; control: uncoated blocked wells (light bars)
Protocol: as §1

[6] = biological target: T3, VEGFR2-Fc fusion; experiment: biolayer interferometry (Octet Red), peptide on streptavidin sensors, steady state analysis; cyclised WW-B1, steady state analysis
Protocol: Real-time binding assays between the peptides and VEGFR2-Fc fusion were performed using biolayer interferometry with an Octet Red system (Fortebio, Menlo Park, Calif.). WW peptides were immobilised on streptavidin biosensors (Fortebio) at a concentration of 2 μg/ml in kinetic buffer. Association curves were then detected by incubating the immobilised peptide with […] (1 to 100 nM in kinetic buffer), and dissociations were detected by incubating the sensors in kinetic buffer. All of the peptides from the affinity maturation, bind to VEGFR2 with a similar affinity as WW-B1.
The dissociation constant for cyclised WW-B1 binding to VEGFR2 was determined by steady state analysis to be 31 nM±4.8 nM (FIG. 12).

[7] = biological target: T3, VEGFR2-Fc fusion; experiment: biolayer interferometry (Octet Red), biotinylated WW-B1 on streptavidin sensors, VEGFR2-Fc 1 to 100 nM, steady state analysis
Protocol: Real time binding assays between chemically synthesised clone WW-B1 and VEGFR2-Fc fusion were performed using biolayer interferometry with an Octet Red system (Fortebio, Menlo Park, Calif.). Biotinylated WW-B1 was immobilised to streptavidin biosensors (Fortebio) at a concentration of 50 ng/μl in PBS. Association curves were then detected by incubating WW-B1-coated sensors with different concentrations of VEGFR2 (1 to 100 nM in PBS), and dissociations were detected by incubating the sensors in PBS. The dissociation constant for WW-B1 binding to VEGFR2 was determined by steady state analysis to be 44 nM±1.1 nM (FIG. 5).

MADEEKLPPGWCKFWSTAGRVIYINRITGAKQWERPSG (designed binder, not shown: large carriers, also: fused to gpIII (M13 phage display), linker not given here) [clone A1, phage-displayed modified Pin1 WW domain peptide]: no binding [1].

MADEEKLPPGWTVWSPNGRVYYWNSITVARQWERPSG (designed binder, not shown: large carriers, also: fused to gpIII (M13 phage display), linker not given here) [clone NP-H8, phage-displayed modified Pin1 WW domain peptide]: no binding [2]; binds [3].

MADEEKLPPGWAVWSPDGRLYYWNSVIVSTRWGRPSC (designed binder, not shown: large carriers, also: fused to gpIII (M13 phage display), linker not given here) [clone NP-A12, phage-displayed modified Pin1 WW domain peptide]: no binding [2]; binds [3].

MADEEKLPPGWYKMWSSPGRVLYVNDITHAHRWERPSG (designed binder, not shown: large carriers, also: fused to gpIII (M13 phage display), linker not given here, also called WW-B1) [clones B1 and H1, phage-displayed modified Pin1 WW domain peptide]: no binding [1].

For MADEEKLPPGWYKMWSSPGRVLYVNDITHAHRWERPSG (designed binder, not shown: large carriers, also: fused to maltose binding protein (MBP), order and linker not given here, also called WW-B1-MBP) [WW-B1 fused to maltose binding protein (MBP)], the EC50 [4] was 76 nM.

MAVEEKLPPGWYKMWSSPGRVLYVNDITHAHQWERPSG (designed binder, not shown: large carriers, also: fused to gpIII (M13 phage display), linker not given here) [clone B4, phage-displayed modified Pin1 WW domain peptide]: binds [5].

MADEEKLPPGWYKMWSSPGRVLYVNDITHAHQWERPSG (designed binder, not shown: large carriers, also: fused to gpIII (M13 phage display), linker not given here) [clones E1, E3, H3, C4, E4, G4 and H6, phage-displayed modified Pin1 WW domain peptide]: no binding [1].

B1: cyclic WW-B1 peptide (Glu38 variant), cyclised through amino acids at positions 6 and 38 (designed binder)
peptide: Biotin-DEEKLPPGWYKMWSSPGRVLYVNDITHAHRWERPEG-NH2
modifications: lactam 4-35
SMILES: CC[C@H](C)[C@@H]1NC(=O)[C@H](CC(=O)O)NC(=O)[C@H](CC(N)=O)NC(=O)[C@H](C(C)C)NC(=O)[C@H](Cc2ccc(O)cc2)NC(=O)[C@H](CC(C)C)NC(=O)[C@H](C(C)C)NC(=O)[C@H](CCCNC(=N)N)NC(=O)CNC(=O)[C@@H]2CCCN2C(=O)[C@H](CO)NC(=O)[C@H](CO)NC(=O)[C@H](Cc2c[nH]c3ccccc23)NC(=O)[C@H](CCSC)NC(=O)[C@H](CCCCN)NC(=O)[C@H](Cc2ccc(O)cc2)NC(=O)[C@H](Cc2c[nH]c3ccccc23)NC(=O)CNC(=O)[C@@H]2CCCN2C(=O)[C@@H]2CCCN2C(=O)[C@H](CC(C)C)NC(=O)[C@@H](NC(=O)[C@H](CCC(=O)O)NC(=O)[C@H](CCC(=O)O)NC(=O)[C@H](CC(=O)O)NC(=O)CCCC[C@@H]2SC[C@@H]3NC(=O)N[C@@H]32)CCCCNC(=O)CC[C@@H](C(=O)NCC(N)=O)NC(=O)[C@@H]2CCCN2C(=O)[C@H](CCCNC(=N)N)NC(=O)[C@H](CCC(=O)O)NC(=O)[C@H](Cc2c[nH]c3ccccc23)NC(=O)[C@H](CCCNC(=N)N)NC(=O)[C@H](Cc2c[nH]cn2)NC(=O)[C@H](C)NC(=O)[C@H](Cc2c[nH]cn2)NC(=O)[C@H]([C@@H](C)O)NC1=O
notes: also called cyclised WW-B1
B1 was tested, and the Kd [6] was 31 nM.

B2: WW-B1 VEGFR2 WW domain, chemically synthesised, biotinylated (linear) (designed binder)
peptide: Biotin-MADEEKLPPGWYKMWSSPGRVLYVNDITHAHRWERPSG
modifications: not fully specified
notes: Modified Pin1 WW domain; also called linear WW-B1; clone WW-B1
Work on B2 yielded a Kd [7] of 44 nM.

MADEEKLPPGWGKGWSPRGRVWYTNRTTVAAQWERPSG (designed binder, not shown: large carriers, also: fused to gpIII (M13 phage display), linker not given here) [clone H4, phage-displayed modified Pin1 WW domain peptide]: binds [5]; no binding [1].

MADEEKLPPGWGKPWSARGRVTYINLITVAEQWERPS (designed binder) [NP-E3]: no binding [2].

Reference: patent US20140005126A1 (ISOGENICA, published 2014)
